Our source for the stoichiometry (molecules of peptide per LDL) (molecules of peptide per LDL) values is patent US20020128175A1.

This assay deals with low density lipoprotein (LDL) from human plasma (human) (UniProt P04114). Nature of the assay: agarose gel, stained bands excised and counted with 125I-labeled peptide.

As to Ac-LRKLRKRLLRDWLKAFYDKVAEKLKEAF-NH2 (also: 125I-labelled where stoichiometry was determined) [Ac-hE18A-NH2 (end protected analog of hApoE[141-150]-18A)], the stoichiometry (molecules of peptide per LDL) (molecules of peptide per LDL) was 30.
